The values that follow come from patent publication US20140220031A1 (Biogen, published 2014).

Changes are numbered by the printed parent chain. Numbers in names are those of the source.

In assay [1] the target is T1, CD154 (human, UniProt P29965 113-261, limits assumed).
T1 construct: also called CD40 ligand; CD40L
T1 sequence (looked up): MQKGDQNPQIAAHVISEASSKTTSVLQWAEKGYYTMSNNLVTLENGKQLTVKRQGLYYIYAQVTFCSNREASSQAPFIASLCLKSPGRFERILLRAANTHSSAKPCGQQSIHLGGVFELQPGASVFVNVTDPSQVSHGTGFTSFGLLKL
As to the kind of experiment: ELISA-based competitive binding assay; unlabeled Fab against biotin-labeled 5c8 Fab competitor.

Assay [2] has as its target T1, CD154. Put plainly: assay not given.
The target in assay [3] is T1, CD154. As to the kind of experiment: assay not named in the sentence (mutants characterized by competitive ELISA).

B1: 5c8 Fab Mutant #1 (heavy chain T30H) (Fab, V domains shown)
VH: QVQLVQSGAEVVKPGASVKLSCKASGYIFHSYYMYWVKQAPGQGLEWIGEINPSNGDTNFNEKFKSKATLTVDKSASTAYMELSSLRSEDTAVYYCTRSDGRNDMDSWGQGTLVTVSS
VL: DIVLTQSPATLSVSPGERATISCRASQRVSSSTYSYMHWYQQKPGQPPKLLIKYASNLESGVPARFSGSGSGTDFTLTISSVEPEDFATYYCQHSWEIPPTFGGGTKLEIK
notes: Fab fragment
For B1, in the assay with CD154 [1], the “ELISA fold-improvement over wildtype” value came out at 2.3 fold over wildtype.

B2: 5c8 Fab Mutant #13 (heavy chain N59L) (Fab, V domains shown)
VH: B1 VH with H30T, N59L
VL: B1 VL
notes: also called Asn59Leu
In the case of B2, in the assay with CD154 [1], the “ELISA fold-improvement over wildtype” value was 0.01 fold over wildtype.

B3: 5c8 Fab Mutant #23 (heavy chain Y33W; light chain S26D/Q27E) (Fab, V domains shown)
VH: B1 VH with H30T, Y33W
VL: B1 VL with S26D, Q27E
notes: Fab fragment
For B3, the “ELISA fold-improvement over wildtype” value with CD154 [1] stood at 5.2 fold over wildtype.

B4: 5c8 Fab Mutant #2 (heavy chain Y33W) (Fab, V domains shown)
VH: B1 VH with H30T, Y33W
VL: B1 VL
notes: Fab fragment
On to B4, for which the “ELISA fold-improvement over wildtype” value with CD154 [1] is 7 fold over wildtype.

B5: 5c8 Fab Mutant #17 (heavy chain Y33W; light chain S26D/Q27E/T33W) (Fab, V domains shown)
VH: B1 VH with H30T, Y33W
VL: B1 VL with S26D, Q27E, T33W
notes: Fab fragment
Regarding B5, the “ELISA fold-improvement over wildtype” value in the assay with CD154 [1] is 5.9 fold over wildtype.

B6: 5c8 Fab Mutant #4 (heavy chain S54N) (Fab, V domains shown)
VH: B1 VH with H30T, S54N
VL: B1 VL
notes: Fab fragment
B6: the “ELISA fold-improvement over wildtype” value with CD154 [1] was found to be 2 fold over wildtype.

B7: 5c8 Fab Mutant #16 (heavy chain T30H; light chain S26D/Q27E) (Fab, V domains shown)
VH: B1 VH
VL: B1 VL with S26D, Q27E
notes: Fab fragment
Turning to B7, the “ELISA fold-improvement over wildtype” value with CD154 [1] is 5.8 fold over wildtype.

B8: 5c8 Fab Mutant #18 (heavy chain T30H; light chain S26D/Q27E/T33W) (Fab, V domains shown)
VH: B1 VH
VL: B1 VL with S26D, Q27E, T33W
notes: Fab fragment
Regarding B8, the “ELISA fold-improvement over wildtype” value in the assay with CD154 [1] is 5.4 fold over wildtype.

B9: 5c8 Fab Mutant #5 (light chain T33W) (Fab, V domains shown)
VH: B1 VH with H30T
VL: B1 VL with T33W
notes: Fab fragment
Consider B9, for which, in the assay with CD154 [1], the “ELISA fold-improvement over wildtype” value turned out to be 5 fold over wildtype.

B10: 5c8 Fab Mutant #15 (light chain S26D/Q27E/T33W) (Fab, V domains shown)
VH: B1 VH with H30T
VL: B1 VL with S26D, Q27E, T33W
notes: Fab fragment
For B10, in the assay with CD154 [1], the “ELISA fold-improvement over wildtype” value came out at 3.8 fold over wildtype.

B11: 5c8 Fab Mutant #10 (light chain Y54E) (Fab, V domains shown)
VH: B1 VH with H30T
VL: B1 VL with Y54E
For the molecule B11, the “ELISA fold-improvement over wildtype” value in the assay with CD154 [1] came out at 0.06 fold over wildtype.

B12: 5c8 Fab Mutant #8 (light chain S31V) (Fab, V domains shown)
VH: B1 VH with H30T
VL: B1 VL with S31V
Consider B12, for which the “ELISA fold-improvement over wildtype” value with CD154 [1] was found to be 0.02 fold over wildtype.

B13: 5c8 Fab Mutant #25 (heavy chain T30H/Y33W; light chain S26D/Q27E/T33W) (Fab, V domains shown)
VH: B1 VH with Y33W
VL: B1 VL with S26D, Q27E, T33W
notes: Fab fragment; also called combination 5 point mutation (assigned)
B13: the “fold higher affinity compared to the wild type” value in the assay with CD154 [2] came out at 25 fold over wild type. Further, the “ELISA fold-improvement over wildtype” value in the assay with CD154 [1] was 5.6 fold over wildtype.

B14: 5c8 Fab Mutant #12 (heavy chain N59D) (Fab, V domains shown)
VH: B1 VH with H30T, N59D
VL: B1 VL
notes: also called Asn59Asp
Consider B14, for which the “ELISA fold-improvement over wildtype” value with CD154 [1] was 0.13 fold over wildtype.

B15: 5c8 Fab Mutant #9 (light chain T33D) (Fab, V domains shown)
VH: B1 VH with H30T
VL: B1 VL with T33D
As to B15, the “ELISA fold-improvement over wildtype” value with CD154 [1] stood at 0.22 fold over wildtype.

B16: 5c8 Fab Mutant #7 (light chain Q27E) (Fab, V domains shown)
VH: B1 VH with H30T
VL: B1 VL with Q27E
notes: Fab fragment
Take B16: in the assay with CD154 [1], the “ELISA fold-improvement over wildtype” value amounted to 6.3 fold over wildtype.

B17: 5c8 Fab Mutant #24 (heavy chain T30H/Y33W; light chain S26D/Q27E) (Fab, V domains shown)
VH: B1 VH with Y33W
VL: B1 VL with S26D, Q27E
notes: Fab fragment
Regarding B17, the “ELISA fold-improvement over wildtype” value with CD154 [1] was determined as 8 fold over wildtype.

B18: 5c8 Fab Mutant #11 (heavy chain Y33F) (Fab, V domains shown)
VH: B1 VH with H30T, Y33F
VL: B1 VL
For the molecule B18, in the assay with CD154 [1], the “ELISA fold-improvement over wildtype” value was 0.05 fold over wildtype.

B19: 5c8 Fab Mutant #6 (light chain S26D) (Fab, V domains shown)
VH: B1 VH with H30T
VL: B1 VL with S26D
notes: Fab fragment
Turning to B19, the “ELISA fold-improvement over wildtype” value in the assay with CD154 [1] turned out to be 2.6 fold over wildtype.

B20: 5c8 Fab Mutant #14 (light chain S26D/Q27E) (Fab, V domains shown)
VH: B1 VH with H30T
VL: B1 VL with S26D, Q27E
notes: Fab fragment; also called double mutant
In the case of B20, the “fold higher affinity compared to the wildtype 5c8 Fab” value with CD154 [3] came to 9 fold over wildtype. Besides, the “ELISA fold-improvement over wildtype” value with CD154 [1] worked out at 5.6 fold over wildtype.
